The target in one experiment is T1, XIAP (Homo sapiens, UniProt P61081+P98170).
T1 construct: The N-terminus (residues 1-434) of XIAP was then fused via a flexible Gly-Gly-Ser-Gly linker to the NEDD8 E2, Ubc12; GST (N, cleaved yes); made in house; host or cells: E. coli BL21 (DE3)
The experiment in a line: SILAC mass spectrometry screen for XIAP substrates with NEDDylator^XIAP in apoptotic Jurkat cell lysate. Format: biochemical. Particulars: Heavy lysate with Ubc12. The protocol:
Jurkat cells were grown in media containing either light or heavy isotopes of lysine and arginine and induced to undergo apoptosis with STS. Light cell extracts were incubated with the respective catalytic tagging system for each of the two IAPs and the heavy extracts labeled only with the wild-type NEDD8 E2, Ubc12. 64 mg regular L-Lys and 83.6 mg L-Arg.HCl were added to 1 liter RPMI-1640 minus L-Lys and L-Arg (Thermo/Pierce), 10% fetal bovine serum (FBS) to generate “Light” medium. 100 mg ^13C6^15N2 L-Lys.2HCl and 86 mg ^13C6 L-Arg.HCl (Cambridge Isotope) were added to the same amount of medium to generate the “Heavy” medium. Jurkat cells were cultured separately in “Light” or “Heavy” medium for 7 days to allow for thorough isotope incorporation. For IAP substrate identification, 400 million cells were treated with 2 μM STS for 4 hours, harvested, lysed in M-PER mammalian protein extraction buffer (Thermo/Pierce) in the presence of protease inhibitors (100× ProteoBlock cocktail, Fermentas) and mixed with cell lysate prepared from 400 million untreated cells. The NEDDylated proteins were isolated under denaturing conditions via the HB-NEDD8 tag using a tandem affinity pull down procedure (Tagwerker et al., Mol Cell Proteomics 5:737-748 (2006)) (FIG. 11). Purified NEDDylated proteins were trypsinized and analyzed with tandem mass spectrometry (LC-MS/MS).
(§1) For SILAC experiments, Jurkat cells were cultured separately in “Light” (supplemented with regular Lys and Arg) or “Heavy” (supplemented with ^13C6^15N2 Lys and ^13C6 Arg) medium for 7 days to allow for thorough isotope incorporation. Apoptotic “Light” and “Heavy” cell extracts were prepared individually. The lysates were cleared by spinning and then diluted in 50 mM HEPES pH 7.4, 150 mM NaCl to 5 mg/ml and supplemented with 5 mM ATP, 10 mM MgCl2. Endogenous NEDD8 E1 is cell lysate was used to catalyze the reaction. HB-NEDD8 was added to both lysate at mass ratio 1:500; the catalytic tagging system was added to the “Light” lysate at mass ratio 1:1000. Equal molar of Ubc12 was added to the “Heavy” lysate. […] NEDDylated proteins were separated by one-dimensional SDS-PAGE, and trypsinized for LC-MS/MS analysis.
For liquid chromatography—Tandem mass spectrometry (LC-MS/MS) analysis, the tryptic peptides were first desalted and concentrated with a C18 Ziptip (Millipore). LC-MS/MS was carried out by reverse phase LC interfaced with a LTQ-Orbitrap (ThermoFisher Scientific) hybrid mass spectrometer. A nanoflow HPLC (NanoAcquity UPLC system, Waters Corporation) was equipped with a trap column (180 μm×20 mm, 5 μm SymmetryC18, from Waters) and an analytical column (100 μm×100 mm, 1.7 μm BEH130C18, from Waters). […]

In a further experiment the target is T2, cIAP1 (Homo sapiens, UniProt P61081+Q13490).
T2 construct: cIAP1(ΔR) (residues 1-555); GST (N, cleaved yes); made in house; host or cells: E. coli BL21 (DE3)
The experiment in a line: SILAC mass spectrometry screen for cIAP1 substrates with NEDDylator^cIAP1 in apoptotic Jurkat cell lysate. The experiment is classed as biochemical. Particulars: Light lysate with NEDDylator^cIAP1, Heavy lysate with Ubc12. The protocol: Jurkat cells were grown in media containing either light or heavy isotopes of lysine and arginine and induced to undergo apoptosis with STS. Light cell extracts were incubated with the respective catalytic tagging system for each of the two IAPs and the heavy extracts labeled only with the wild-type NEDD8 E2, Ubc12. […] 100 mg ^13C6^15N2 L-Lys.2HCl and 86 mg ^13C6 L-Arg.HCl (Cambridge Isotope) were added to the same amount of medium to generate the “Heavy” medium. Jurkat cells were cultured separately in “Light” or “Heavy” medium for 7 days to allow for thorough isotope incorporation. For IAP substrate identification, 400 million cells were treated with 2 μM STS for 4 hours, harvested, lysed in M-PER mammalian protein extraction buffer (Thermo/Pierce) in the presence of protease inhibitors (100× ProteoBlock cocktail, Fermentas) and mixed with cell lysate prepared from 400 million untreated cells. […] Purified NEDDylated proteins were trypsinized and analyzed with tandem mass spectrometry (LC-MS/MS).
as §1
For liquid chromatography—Tandem mass spectrometry (LC-MS/MS) analysis, the tryptic peptides were first desalted and concentrated with a C18 Ziptip (Millipore). LC-MS/MS was carried out by reverse phase LC interfaced with a LTQ-Orbitrap (ThermoFisher Scientific) hybrid mass spectrometer. A nanoflow HPLC (NanoAcquity UPLC system, Waters Corporation) was equipped with a trap column (180 μm×20 mm, 5 μm SymmetryC18, from Waters) and an analytical column (100 μm×100 mm, 1.7 μm BEH130C18, from Waters). Peptides were eluted over a linear gradient from 2% solvent A (0.1% formic acid in water) to 35% solvent B (0.1% formic acid in acetonitrile) at 350 nL/min over 35 min. MS and MS/MS spectra were acquired in a data-dependent mode with MS spectra acquired in the Orbitrap at 30,000 resolving power and 6 CID MS/MS spectra acquired per MS in the LTQ linear ion trap. Dynamic exclusion was set at 90 seconds to prevent repeated MS/MS on the same precursor ion.
The identified peptides were searched against a random decoy protein database for evaluating the false positive rates. […] The decoy peptides were removed from the data. Protein IDs were assigned only when at least two unique peptides were identified from the same protein. For SILAC experiment, Light/Heavy ratios for the identified peptides were calculated, using ProteinProspector. The media Light/Heavy ratios of all the peptides identified for each protein were used to represent the Light/Heavy ratio of the protein.

T2 sequence (Q13490+P61081 fused): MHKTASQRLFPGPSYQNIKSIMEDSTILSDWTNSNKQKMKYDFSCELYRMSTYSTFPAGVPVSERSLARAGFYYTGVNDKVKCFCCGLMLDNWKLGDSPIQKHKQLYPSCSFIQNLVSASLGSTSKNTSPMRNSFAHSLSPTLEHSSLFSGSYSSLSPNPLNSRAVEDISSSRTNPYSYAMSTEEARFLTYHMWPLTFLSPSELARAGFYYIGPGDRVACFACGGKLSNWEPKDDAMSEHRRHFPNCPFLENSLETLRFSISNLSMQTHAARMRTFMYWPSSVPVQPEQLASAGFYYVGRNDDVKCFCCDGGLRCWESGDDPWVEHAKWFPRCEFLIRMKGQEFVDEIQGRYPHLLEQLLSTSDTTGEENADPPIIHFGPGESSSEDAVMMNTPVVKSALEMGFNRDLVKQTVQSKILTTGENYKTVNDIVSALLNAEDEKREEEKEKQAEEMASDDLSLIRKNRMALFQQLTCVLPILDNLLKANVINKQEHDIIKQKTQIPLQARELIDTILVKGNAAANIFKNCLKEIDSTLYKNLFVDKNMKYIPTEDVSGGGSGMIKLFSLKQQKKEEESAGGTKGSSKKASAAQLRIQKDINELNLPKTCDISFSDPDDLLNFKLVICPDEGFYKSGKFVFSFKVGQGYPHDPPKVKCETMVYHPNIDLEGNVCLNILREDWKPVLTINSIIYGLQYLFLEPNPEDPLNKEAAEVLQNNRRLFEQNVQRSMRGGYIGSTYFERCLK
T1 sequence (P98170+P61081 fused): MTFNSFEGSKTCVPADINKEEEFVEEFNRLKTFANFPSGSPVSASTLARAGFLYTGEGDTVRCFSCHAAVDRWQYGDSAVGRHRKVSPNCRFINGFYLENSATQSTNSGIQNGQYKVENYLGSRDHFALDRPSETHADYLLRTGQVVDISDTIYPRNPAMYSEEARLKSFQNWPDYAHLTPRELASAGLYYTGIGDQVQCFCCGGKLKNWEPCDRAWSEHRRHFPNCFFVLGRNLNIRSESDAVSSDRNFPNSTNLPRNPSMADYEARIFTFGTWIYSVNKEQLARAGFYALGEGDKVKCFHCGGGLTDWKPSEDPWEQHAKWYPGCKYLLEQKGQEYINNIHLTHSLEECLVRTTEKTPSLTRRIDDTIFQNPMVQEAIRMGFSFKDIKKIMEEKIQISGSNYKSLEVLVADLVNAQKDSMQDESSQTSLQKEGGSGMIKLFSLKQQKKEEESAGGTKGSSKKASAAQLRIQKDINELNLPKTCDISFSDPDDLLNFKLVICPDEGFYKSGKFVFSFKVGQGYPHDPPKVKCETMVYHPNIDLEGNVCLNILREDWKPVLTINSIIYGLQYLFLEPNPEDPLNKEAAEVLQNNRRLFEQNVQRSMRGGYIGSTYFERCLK

B1: Serine protease HtrA2, mitochondrial: known IAP substrate (protein, UniProt O43464 134-458, looked up)
Serine protease HTRA2, …: AVPSPPPASPRSQYNFIADVVEKTAPAVVYIEILDRHPFLGREVPISNGSGFVVAADGLIVTNAHVVADRRRVRVRLLSGDTYEAVVTAVDPVADIATLRIQTKEPLPTLPLGRSADVRQGEFVVAMGSPFALQNTITSGIVSSAQRPARDLGLPQTNVEYIQTDAAIDFGNSGGPLVNLDGEVIGVNTMKVTAGISFAIPSDRLREFLHRGEKKNSSSGISGSQRRYIGVMMLTLSPSILAELQLREPSFPDVQHGVLIHKVILGSPAHRAGLRPGDVILAIGEQMVQNAEDVYEAVRTQSQLAVQIRRGRETLTLYVTPEVTE
In the case of B1, the entries for the “L/H (Light/Heavy ratio)” value in the experiment with XIAP and in the experiment with cIAP1 were 21.4 and 39.2, respectively.

The values above are taken from patent publication US20150010525A1, “Catalytic Tagging System to Study Macro-Molecular Interactions Using Engineered Ubiquitin Ligase and Ubiquitin-Like Proteins to Facilitate Substrate Identification” (THE REGENTS OF THE UNIVERSITY OF CALIFORNIA, priority 2012, published 2015).
